Results from patent US20250115678A1 (AstraZeneca / MedImmune, published 2025).
Where a chain is given by its changes, count along the chain named.

Key:
[1] = molecular target: T1, human EphB6 on transiently transfected Ad293 cells (human, UniProt O15197 32-1021); assay: Flow cytometry on Ad293 cells transiently transfected with human EphB6 (off-target binding)
T1 construct: whole, on cells; also called EphB6-expressing cells
T1 sequence (looked up): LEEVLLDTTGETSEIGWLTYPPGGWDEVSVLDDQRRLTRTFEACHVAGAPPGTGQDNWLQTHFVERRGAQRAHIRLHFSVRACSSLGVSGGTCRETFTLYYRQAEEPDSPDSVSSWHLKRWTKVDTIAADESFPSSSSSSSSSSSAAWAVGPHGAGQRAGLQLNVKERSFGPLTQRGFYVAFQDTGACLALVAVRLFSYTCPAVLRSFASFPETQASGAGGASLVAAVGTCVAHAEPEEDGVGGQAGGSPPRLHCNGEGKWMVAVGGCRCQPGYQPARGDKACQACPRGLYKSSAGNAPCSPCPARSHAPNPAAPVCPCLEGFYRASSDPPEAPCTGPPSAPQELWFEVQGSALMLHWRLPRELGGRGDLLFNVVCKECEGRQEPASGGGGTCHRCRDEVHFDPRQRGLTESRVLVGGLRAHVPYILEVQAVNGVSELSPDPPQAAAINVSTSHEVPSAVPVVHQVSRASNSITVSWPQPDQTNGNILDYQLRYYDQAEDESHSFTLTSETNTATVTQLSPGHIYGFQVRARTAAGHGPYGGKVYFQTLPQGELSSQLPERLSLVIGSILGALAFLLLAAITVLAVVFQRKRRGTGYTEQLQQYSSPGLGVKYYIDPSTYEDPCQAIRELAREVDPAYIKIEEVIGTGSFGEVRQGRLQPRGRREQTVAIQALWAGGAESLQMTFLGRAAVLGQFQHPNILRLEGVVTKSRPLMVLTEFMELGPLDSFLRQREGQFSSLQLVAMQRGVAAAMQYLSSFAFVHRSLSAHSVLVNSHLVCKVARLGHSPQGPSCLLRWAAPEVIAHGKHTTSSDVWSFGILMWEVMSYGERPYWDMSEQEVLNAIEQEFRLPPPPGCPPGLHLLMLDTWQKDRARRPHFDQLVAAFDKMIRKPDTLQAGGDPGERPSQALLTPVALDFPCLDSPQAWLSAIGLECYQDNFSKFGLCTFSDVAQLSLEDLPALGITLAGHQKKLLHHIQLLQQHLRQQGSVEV
Text: Ad293 cells were transiently transfected with a plasmid expressing human EphB6.

[2] = molecular target: T2, human LRRC15 recombinant extracellular domain protein (human, UniProt Q8TF66 22-538); assay: SPR single-cycle kinetics (Biacore 8K+), TCE captured on Protein G chip, LRRC15 ECD as analyte, 1:1 fit, average of 3 or 4 replicates
T2 construct: extracellular domain; also called LRRC15 human
T2 sequence (looked up): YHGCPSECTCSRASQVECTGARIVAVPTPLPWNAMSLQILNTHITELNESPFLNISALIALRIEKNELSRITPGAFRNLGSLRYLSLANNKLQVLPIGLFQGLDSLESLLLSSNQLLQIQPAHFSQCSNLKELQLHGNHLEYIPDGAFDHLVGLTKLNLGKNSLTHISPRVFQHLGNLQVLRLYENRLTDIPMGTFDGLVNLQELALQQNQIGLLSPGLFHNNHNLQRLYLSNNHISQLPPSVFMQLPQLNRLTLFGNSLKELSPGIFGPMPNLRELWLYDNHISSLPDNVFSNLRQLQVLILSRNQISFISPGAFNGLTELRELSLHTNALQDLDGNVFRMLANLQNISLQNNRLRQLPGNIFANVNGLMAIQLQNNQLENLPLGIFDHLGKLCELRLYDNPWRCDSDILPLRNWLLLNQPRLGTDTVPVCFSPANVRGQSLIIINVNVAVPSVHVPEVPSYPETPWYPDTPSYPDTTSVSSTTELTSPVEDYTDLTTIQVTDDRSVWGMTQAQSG
Text: (§1) The fully corrected binding data were globally fitted to a 1:1 binding model to determine the KD using the Biacore™ Insight Evaluation Software (CYTIVA). Coloured sensorgram trace represents the raw data and black line the global 1:1 fit to that data. Values for kinetics parameters is shown in Table 8 are averages for 3 or 4 replicate sets of measurements.

[3] = molecular target: T3, cyno LRRC15 recombinant extracellular domain protein (cyno, UniProt G7NYR2 22-538); assay: as above
T3 construct: extracellular domain; also called LRRC15 cyno
Text: as §1

[4] = molecular target: T4, soluble recombinant human CD8a protein (human, UniProt P01732 22-182, biotinylated); assay: biolayer interferometry (Octet RED384), biotinylated antigen on streptavidin biosensors
T4 construct: also called CD8α Human
T4 sequence (P01732 22-182 limits assumed): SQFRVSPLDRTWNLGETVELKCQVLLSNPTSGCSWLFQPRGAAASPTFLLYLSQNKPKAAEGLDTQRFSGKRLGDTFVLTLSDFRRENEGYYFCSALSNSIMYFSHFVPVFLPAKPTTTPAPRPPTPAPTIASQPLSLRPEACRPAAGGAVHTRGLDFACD
Protocol: (§2) Binding kinetics were measured by biolayer interferometry on an OCTET 384 instrument. Streptavidin (SA) biosensors were loaded with biotinylated protein antigens (ACRO Biosystems, Newark, DE) in PBS pH 7.2, 1 mg/mL BSA, 0.05% (v/v) TWEEN (Kinetic buffer). The loaded biosensors were washed in the same buffer before carrying out association and dissociation measurements with various antibodies for the indicated times. Kinetic parameters (Kₒₙ and Koff) and affinities (KD) were calculated from a non-linear fit of the data using the OCTET software v.12.2.1.24.

[5] = molecular target: T5, soluble recombinant human GPC3 protein (human, UniProt P51654 25-559, biotinylated in the biolayer interferometry assay); assay: biolayer interferometry (Octet), biotinylated antigen on streptavidin biosensors
T5 construct: also called GPC3 human
T5 sequence (P51654 25-559 limits assumed): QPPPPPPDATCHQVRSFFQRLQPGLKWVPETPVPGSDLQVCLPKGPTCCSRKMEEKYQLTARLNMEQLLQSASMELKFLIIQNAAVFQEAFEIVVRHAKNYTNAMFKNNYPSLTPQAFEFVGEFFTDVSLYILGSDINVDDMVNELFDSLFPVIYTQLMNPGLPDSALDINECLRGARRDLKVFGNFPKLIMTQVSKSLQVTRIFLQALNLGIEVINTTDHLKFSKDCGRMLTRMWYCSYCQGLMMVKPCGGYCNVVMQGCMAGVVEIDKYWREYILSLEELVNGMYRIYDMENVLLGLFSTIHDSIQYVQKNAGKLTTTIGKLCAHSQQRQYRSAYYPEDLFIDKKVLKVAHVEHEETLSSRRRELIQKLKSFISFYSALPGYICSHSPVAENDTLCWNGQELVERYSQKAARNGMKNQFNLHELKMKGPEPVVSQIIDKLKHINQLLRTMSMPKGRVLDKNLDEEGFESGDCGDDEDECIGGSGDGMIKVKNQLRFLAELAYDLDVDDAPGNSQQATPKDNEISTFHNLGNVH
Protocol: as §2

B1: TPP-46959 (other)
light: not shown
heavy 1: EVQLVQSGAEVKKPGASVKVSCKASGYKFSSYWIEWVKQAPGQGLEWIGEILPGSDTTNYAQKFQDRVTFTSDTSISTAYMELSRLRSDDTAVYYCARDRGNYRAWFGYWGQGTLVTVSSASTKGPSVFPLAPSSKSTSGGTAALGCLVKDYFPEPVTVSWNSGALTSGVHTFPAVLQSSGLYSLSSVVTVPSSSLGTQTYICNVNHKPSNTKVDKRVEPKSCDKTGGSEVQLVESGGGLVQPGGSLRLSCVASGDVHKINFLGWYRQAPGKEREKVAHISIGDQTDYADSAKGRFTISRDESKNMVYLQMNSLKPEDTAVYFCRAFSRIYPYDYWGQGTLVTVSSGGGGSTHTCPPCPAPPVAGPSVFLFPPKPKDTLMISRTPEVTCVVVDVKHEDPEVKFNWYVDGVEVHNAKTKPREEQYNSTYRVVSVLTVLHQDWLNGKEYKCKVSNKALPAPIEKTISKAKGQPREPQVCTLPPSREEMTKNQVSLSCAVKGFYPSDIAVEWESNGQPENNYKTTPPVLDSDGSFFLVSKLTVDKSRWQQGNVFSCSVMHEALHNRFTQKSLSLSPGK
heavy 2: EVQLVQSGAEVKKPGASVKVSCKASGYKFSSYWIEWVKQAPGQGLEWIGEILPGSDTTNYAQKFQDRVTFTSDTSISTAYMELSRLRSDDTAVYYCARDRGNYRAWFGYWGQGTLVTVSSASTKGPSVFPLAPSSKSTSGGTAALGCLVKDYFPEPVTVSWNSGALTSGVHTFPAVLQSSGLYSLSSVVTVPSSSLGTQTYICNVNHKPSNTKVDKRVEPKSCDKTGGSEVQLLESGGGLVQPGGSLRLSCAASGFTFTDYAIGWFRQAPGKEREGVSCIRVSDGSTYYADSVKGRFTISRDSSKNTLYLQMNSLRAEDTAVYYCAAGSLYTCVQSIVWPARPYYDMDYWGQGTLVTVSSGGGGSTHTCPPCPAPPVAGPSVFLFPPKPKDTLMISRTPEVTCVVVDVKHEDPEVKFNWYVDGVEVHNAKTKPREEQYNSTYRVVSVLTVLHQDWLNGKEYKCKVSNKALPAPIEKTISKAKGQPREPQVYTLPPCREEMTKNQVSLWCLVKGFYPSDIAVEWESNGQPENNYKTTPPVLDSDGSFFLYSKLTVDKSRWQQGNVFSCSVMHEALHNHYTQKSLSLSPGK
notes: T-cell engager in the CD8/TCR format: 2x LRRC15 Fab, 1x TCR VHH, 1x CD8 VHH; Residue 55 of L-CDR2 is E
[1]
  binding result: binds
[2]
  Kd: 1.34 nM
[3]
  Kd: 3 nM

B2: TPP-46956 (other)
light: not shown
heavy 1: B1 heavy 1 with K63N
heavy 2: B1 heavy 2 with K63N
notes: T-cell engager in the CD8/TCR format: 2x LRRC15 Fab, 1x TCR VHH, 1x CD8 VHH
[1]
  binding result: binds
[2]
  Kd: 2.24 nM
[3]
  Kd: 4.8 nM

B3: TPP-46957 (other)
light: not shown
heavy 1: B1 heavy 1 with K63Q
heavy 2: B1 heavy 2 with K63Q
notes: as for B2
[1]
  binding result: binds
[2]
  Kd: 2.27 nM
[3]
  Kd: 4.55 nM

B4: TPP-46958 (other)
light: not shown
heavy 1: B1 heavy 1 with T57A
heavy 2: B1 heavy 2 with T57A
notes: as for B2
[1]
  binding result: binds
[2]
  Kd: 3.1 nM
[3]
  Kd: 6.4 nM

B5: TPP-46960 (other)
light: not shown
heavy 1: B1 heavy 1
heavy 2: B1 heavy 2
notes: T-cell engager in the CD8/TCR format: 2x LRRC15 Fab, 1x TCR VHH, 1x CD8 VHH; Residue 55 of L-CDR2 is N
[1]
  binding result: binds
[2]
  Kd: 0.98 nM
[3]
  Kd: 2.24 nM

B6: anti-CD8 VHH (VHH)
VHH: EVQLLESGGGLVQPGGSLRLSCAASGFTFDDYAIGWFRQAPGKEREGVSCIRVSDGSTYYADSVKGRFTISRDNSKNTLYLQMNSLRAEDTAVYYCAAGSLYTCVQSIVWPARPYYDMDYWGQGTLV
notes: also called CD8 VHHb
[4]
  Kd: 55.3 nM
  koff: 0.0286 s⁻¹
  kon: 517000 M⁻¹ s⁻¹

B7: anti-GPC3 Fab (Fab, V domains shown)
VH: QVQLVQSGAEVKKPGASVKVSCKASGYTFTDYEMHWVRQAPGQGLEWMGALDPKTGDTAYSQKFKGRVTLTADKSTSTAYMELSSLTSEDTAVYYCTRFYSYTYWGQGTLVTVSS
VL: DVVMTQSPLSLPVTPGEPASISCRSSQSLVHSNRNTYLHWYLQKPGQSPQLLIYKVSNRFSGVPDRFSGSGSGTDFTLKISRVEAEDVGVYYCSQNTHVPPTFGQGTKLEIK
[5]
  Kd: 1.87 nM
  koff: 0.000422 s⁻¹
  kon: 226000 M⁻¹ s⁻¹
